According to patent US20250049896A1 (Regeneron, published 2025):
Positions count from the first letter of the chain named.

B1: 69326 scFv (VK-VH) (scFv)
scFv: EIVMTQSPATLSVSPGERATLSCRASQSVSSNFAWYQQKPGQAPRLLIYSASSRATGIPVRFSGSGSGTEFTLTISSLQSEDFAVYYCQQYNIWPRTFGQGTKVEIKGGGGSGGGGSGGGGSEVQLVESGGGLVQPGGSLRLSCAVSGFIFSSYEMNWVRQAPGKGLEWVSYISSSGSTIFYADSVKGRFTISRDNAKNSLYLQMNSLRAEDTAVYYCVSGVVLFDVWGQGTMVTVSS
notes: CHO supernatant; Vk-3xG4S-Vh
B2: 69331 scFv (VK-VH) (scFv)
scFv: DIQLTQSPSSLSASVGDRVTITCWASQGISSYLAWYQQKPGKAPKLLIYAASTLQSGVPSRFSGSGSGTEFTLTISSLQPEDFATYYCQQLNSYPLTFGGGTKVEIKGGGGSGGGGSGGGGSQVQLVESGGGVVQPGRSLRLSCIASGFTFSVYGIHWVRQAPGKGLEWMAVISHDGNIKHYADSVKGRFTISRDNSKNTLYLQINSLRTEDTAVYYCAKDTWNSLDTFDIWGQGTMVTVSS
notes: CHO supernatant; Vk-3xG4S-Vh
B3: 69332 scFv (VH-VK) (scFv)
chain: QVTLRESGPALVKPSQTLTLTCTFSGFSLNTYGMFVSWIRQPPGKALEWLAHIHWDDDKYYSTSLKTRLTISKDTSKNQVVLTMTNMDPVDTATYYCARGHNNLNYIIHWGQGTLVTVSSAIQMTQSPSSLSASVGDRVTITCRASQGIRNDLGWYQQKPGKAPKLLIYAASTLQSGVPSRFSGSGSGTDFTLTISSLQPEDFATYYCLQDYNYPFTFGPGTKVDIK
B4: 69331 scFv (VH-VK) (scFv)
chain: QVQLVESGGGVVQPGRSLRLSCIASGFTFSVYGIHWVRQAPGKGLEWMAVISHDGNIKHYADSVKGRFTISRDNSKNTLYLQINSLRTEDTAVYYCAKDTWNSLDTFDIWGQGTMVTVSSDIQLTQSPSSLSASVGDRVTITCWASQGISSYLAWYQQKPGKAPKLLIYAASTLQSGVPSRFSGSGSGTEFTLTISSLQPEDFATYYCQQLNSYPLTFGGGTKVEIK
B5: 69332 scFv (VK-VH) (scFv)
scFv: AIQMTQSPSSLSASVGDRVTITCRASQGIRNDLGWYQQKPGKAPKLLIYAASTLQSGVPSRFSGSGSGTDFTLTISSLQPEDFATYYCLQDYNYPFTFGPGTKVDIKGGGGSGGGGSGGGGSQVTLRESGPALVKPSQTLTLTCTFSGFSLNTYGMFVSWIRQPPGKALEWLAHIHWDDDKYYSTSLKTRLTISKDTSKNQVVLTMTNMDPVDTATYYCARGHNNLNYIIHWGQGTLVTVSS
notes: CHO supernatant; Vk-3xG4S-Vh
B6: 69332 Fab (Fab, V domains shown)
VH: QVTLRESGPALVKPSQTLTLTCTFSGFSLNTYGMFVSWIRQPPGKALEWLAHIHWDDDKYYSTSLKTRLTISKDTSKNQVVLTMTNMDPVDTATYYCARGHNNLNYIIHWGQGTLVTVSS
VL: AIQMTQSPSSLSASVGDRVTITCRASQGIRNDLGWYQQKPGKAPKLLIYAASTLQSGVPSRFSGSGSGTDFTLTISSLQPEDFATYYCLQDYNYPFTFGPGTKVDIKR
notes: CHO supernatant
B7: 69329 scFv (VH-VK) (scFv)
chain: EVQLVESGGGLVQPGGSLRLSCAASGFTFSNYWMTWVRQAPGKGLEWVANIKEDGSEKDYVDSVKGRFTISRDNAKNSLYLQMNSLRGEDTAVYYCARDGEQLVDYYYYYVMDVWGQGTTVTVSSDIQMTQSPSSVSASVGDRVTITCRASQGISSWLAWYQQKPGKAPKLLIYAASSLQSGVPSRFSGSGSGTDFTLTISSLQPEDFATYYCQKANSFPYTFGQGTKLEIK
B8: 69340 scFv (VK-VH) (scFv)
scFv: EIVLTQSPATLSLSPGERATLSCRASQSVSSYLAWYQQKPGQAPRLLIHDVSNRATGIPARFSGSGSGTDFTLTISSLEPEDFVVYYCQQRSDWPITFGQGTRLEIKGGGGSGGGGSGGGGSEVQLVESGGGLVQPGRSLRLSCAASGFTFDDKAMHWVRQVPGKGLEWISGISWNSGTIGYADSVKGRFIISRDNAKNSLYLQMNSLRAEDTALYYCAKDGDTSGWYWYGLDVWGQGTTVTVSS
notes: CHO supernatant; Vk-3xG4S-Vh
B9: 69331 Fab (Fab, V domains shown)
VH: QVQLVESGGGVVQPGRSLRLSCIASGFTFSVYGIHWVRQAPGKGLEWMAVISHDGNIKHYADSVKGRFTISRDNSKNTLYLQINSLRTEDTAVYYCAKDTWNSLDTFDIWGQGTMVTVSS
VL: DIQLTQSPSSLSASVGDRVTITCWASQGISSYLAWYQQKPGKAPKLLIYAASTLQSGVPSRFSGSGSGTEFTLTISSLQPEDFATYYCQQLNSYPLTFGGGTKVEIKR
notes: CHO supernatant
B10: 69323 Fab (Fab, V domains shown)
VH: EVQLVESGGGLVQPGRSLRLSCAASGFTFDDYAMHWVRQAPGKGLEWVSGISWNSGYIGYADSVKGRFTISRDNAENSLHLQMNSLRAEDTALYYCARGGSTLVRGVKGGYYGMDVWGQGTTVTVSS
VL: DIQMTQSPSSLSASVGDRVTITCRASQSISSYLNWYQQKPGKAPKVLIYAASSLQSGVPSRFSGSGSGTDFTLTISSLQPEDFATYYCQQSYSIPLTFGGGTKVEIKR
notes: CHO supernatant
B11: 69307 scFv (VK-VH) (scFv)
scFv: DIQMTQSPSSVSASVGDRVTITCRASQGISSWLAWYQQKPGKAPKLLIYAASSLQSGVPSRFSGSGSGTDFTLTISSLQPEDFATYYCQKADSLPYAFGQGTKLEIKGGGGSGGGGSGGGGSEVQLVESGGGLVQPGGSLRLSCTASGFTFSNYWMTWVRQAPGKGLEWVANIKEDGSEKEYVDSVKGRFTISRDNAKNSLYLQMNSLRGEDTAVYYCARDGEQLVDYYYYYVMDVWGQGTTVTVSS
notes: CHO supernatant; Vk-3xG4S-Vh
B12: 69329 scFv (VK-VH) (scFv)
scFv: B11 scFv with D92N, L94F, A97T, T145A, E181D
notes: CHO supernatant; Vk-3xG4S-Vh
B13: 69326 scFv (VH-VK) (scFv)
chain: EVQLVESGGGLVQPGGSLRLSCAVSGFIFSSYEMNWVRQAPGKGLEWVSYISSSGSTIFYADSVKGRFTISRDNAKNSLYLQMNSLRAEDTAVYYCVSGVVLFDVWGQGTMVTVSSEIVMTQSPATLSVSPGERATLSCRASQSVSSNFAWYQQKPGQAPRLLIYSASSRATGIPVRFSGSGSGTEFTLTISSLQSEDFAVYYCQQYNIWPRTFGQGTKVEIK
B14: 69340 scFv (VH-VK) (scFv)
chain: EVQLVESGGGLVQPGRSLRLSCAASGFTFDDKAMHWVRQVPGKGLEWISGISWNSGTIGYADSVKGRFIISRDNAKNSLYLQMNSLRAEDTALYYCAKDGDTSGWYWYGLDVWGQGTTVTVSSEIVLTQSPATLSLSPGERATLSCRASQSVSSYLAWYQQKPGQAPRLLIHDVSNRATGIPARFSGSGSGTDFTLTISSLEPEDFVVYYCQQRSDWPITFGQGTRLEIK
B15: 69340 Fab (Fab, V domains shown)
VH: EVQLVESGGGLVQPGRSLRLSCAASGFTFDDKAMHWVRQVPGKGLEWISGISWNSGTIGYADSVKGRFIISRDNAKNSLYLQMNSLRAEDTALYYCAKDGDTSGWYWYGLDVWGQGTTVTVSS
VL: EIVLTQSPATLSLSPGERATLSCRASQSVSSYLAWYQQKPGQAPRLLIHDVSNRATGIPARFSGSGSGTDFTLTISSLEPEDFVVYYCQQRSDWPITFGQGTRLEIKR
notes: CHO supernatant
B16: 69326 Fab (Fab, V domains shown)
VH: EVQLVESGGGLVQPGGSLRLSCAVSGFIFSSYEMNWVRQAPGKGLEWVSYISSSGSTIFYADSVKGRFTISRDNAKNSLYLQMNSLRAEDTAVYYCVSGVVLFDVWGQGTMVTVSS
VL: EIVMTQSPATLSVSPGERATLSCRASQSVSSNFAWYQQKPGQAPRLLIYSASSRATGIPVRFSGSGSGTEFTLTISSLQSEDFAVYYCQQYNIWPRTFGQGTKVEIKR
notes: CHO supernatant

molecular target: T1, Hmm-hTFRC (REGN2431), monomeric human transferrin receptor ectodomain with N-terminal hexahistidine-myc-myc … (human, UniProt P02786 89-760); assay: blocking ELISA, supernatant; Hmm-hTFRC binding to immobilized human holo-Tf
T1 construct: also called hmm.hTfR(C89-F763); His-myc-myc-hTFRC ecto
T1 sequence (P02786 other isoform, or with tags, fused parts or gaps): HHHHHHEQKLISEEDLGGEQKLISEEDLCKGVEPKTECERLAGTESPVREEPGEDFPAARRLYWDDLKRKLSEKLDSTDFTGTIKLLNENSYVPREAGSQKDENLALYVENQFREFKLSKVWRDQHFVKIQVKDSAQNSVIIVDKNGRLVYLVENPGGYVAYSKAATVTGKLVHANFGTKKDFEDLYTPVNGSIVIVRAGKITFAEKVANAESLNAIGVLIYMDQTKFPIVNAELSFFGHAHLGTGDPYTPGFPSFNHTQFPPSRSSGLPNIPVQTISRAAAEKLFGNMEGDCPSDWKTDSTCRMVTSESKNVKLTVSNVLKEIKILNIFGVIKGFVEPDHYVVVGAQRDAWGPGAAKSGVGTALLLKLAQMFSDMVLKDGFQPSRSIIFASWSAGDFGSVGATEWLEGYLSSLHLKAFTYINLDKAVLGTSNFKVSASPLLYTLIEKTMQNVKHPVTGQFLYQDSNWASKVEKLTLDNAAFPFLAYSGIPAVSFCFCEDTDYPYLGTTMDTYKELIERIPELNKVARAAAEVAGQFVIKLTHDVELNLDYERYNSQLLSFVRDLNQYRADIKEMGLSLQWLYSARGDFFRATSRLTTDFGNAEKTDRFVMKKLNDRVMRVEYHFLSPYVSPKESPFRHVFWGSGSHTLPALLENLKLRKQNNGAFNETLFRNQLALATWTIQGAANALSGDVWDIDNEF
Procedure: In the blocking assay, the anti-human Transferrin goat IgG polyclonal antibody (anti-hTf pAb) was passively absorbed at a concentration of 2 micrograms/mL in PBS on a 96-well microtiter plate overnight at 4° C. […] To the same plate, human holo-Tf was then added at a concentration of 1 micrograms/mL in PBS+0.5% BSA for 2 hours at room temperature. […] After a 1-hour incubation, the mixtures were transferred to the human holo-Tf microtiter plates. […] The plates were developed using TMB substrate solution according to the manufacturer's recommended procedure and absorbance at 450 nm was measured on a Victor™ Multilabel Plate Reader.
The ability of the anti-TfR antibody to block human TFRC binding to human holo-Tf was evaluated using an ELISA-based blocking assay.

In order of falling “% Blocking” value:
1. B7  25%
2. B5  22%
3. B12  19%
4. B6  18%
5. B13  18%
6. B2  13%
7. B8  13%
8. B1  12%
9. B10  12%
10. B11  12%
11. B9  9%
12. B4  7%
13. B3  6%
14. B14  6%
15. B15  3%
16. B16  -2%
